# Changes are numbered by the printed parent chain.
# T1: HCV Core1-169 (HCV-1, UniProt P26664 1-169)
# T1 construct: also called recombinant HCV core antigen
# T1 sequence: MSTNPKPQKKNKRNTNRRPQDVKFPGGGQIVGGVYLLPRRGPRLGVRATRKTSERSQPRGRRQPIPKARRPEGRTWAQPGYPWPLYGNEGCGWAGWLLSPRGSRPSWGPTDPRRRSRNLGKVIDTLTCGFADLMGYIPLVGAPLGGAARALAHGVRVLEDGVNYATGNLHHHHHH
# T2: HCV Core1-169 (hepatitis C virus (HCV-1), UniProt P26664 1-169)
# T2 sequence: T1 sequence
# B1: HCV 208A-638 (antibody, V domains shown)
# VH: QGQLQQPGAEFVKPGASLKLSCRASGYTFTSYWIHWVKQRPGQGLEWIGEVDPSDSYINQNEKFRGKATLTVDKSSSTAYMQLGSLTSEDSAVYYCARHYYGVLDSWGQGTALTVSS
# VL: QIVLTQSPTIMSASLGERVTMTCTASSSVSSSYLHWFQQKPGSSPKLWIYSTSNLASGVPPRFSGSGSGTSYSLSISSVEAEDVATYYCLQFHRSPWTFGGGAKLEIKR
# B2: HCV 208A-442 (antibody, V domains shown)
# VH: DVQLQESGPGLVNPSQSLSLTCSVTGYSITSGYYWIWIRQFPGNKLEWMGYIKYDGGNNYSPSLKNRISIARDTSKNQFFLKLNSVTIEDTATYYCTRGSDSFDYWGQGTTLTVSS
# VL: DIVLTQSPASLAVSLGQRAIISCKASQSVSFAGTNLMHWYQQKPGQQPKLLIYRASNLETGVPTRFSGSGSRTDFTLNIHPVEEDDAATYYCQQSREYYTFGGGTKLEIKR
# B3: HCV 208A-557 (antibody, V domains shown)
# VH: QGQMQQSGAELVKPGASVKLSCKTSGFTFSSSYISWLKQKPGQSLEWIAWIYAGTGNTNYNQKFTDKAQLTVDTSSSTAYMQLSSLTTEDSAIYYCAISGTGFTYWGQGTLVTVSA
# VL: DIALTQSPASLAVSLGQRATISCRASQSVSTSRYSYMHWYQQKPGQPPELLIKYASNLESGVPARFSGSGSGTDFTLNIHPVGEEDTATYYCQHSWDFPFTFGSGTKLEIKR
# B4: HCV 208A-920 (antibody, V domains shown)
# VH: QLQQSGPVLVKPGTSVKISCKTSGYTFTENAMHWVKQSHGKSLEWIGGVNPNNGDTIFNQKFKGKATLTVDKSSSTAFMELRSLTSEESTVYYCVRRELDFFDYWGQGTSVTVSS
# VL: B3 VL with A3V, E49K, G83A, T89A, D97E
# B5: HCV 208B-560 (antibody, V domains shown)
# VH: EVQLQQSGPELEKPGASVKISCKTSGYTFTEYAMHWVKQSHGMSLEWIGGINPSNGNAIYNQIFKDKATLTVDRSSSTAYMGLRSLTFGDSGVYFCVRRQLDFFDYWGQGASLTVSS
# VL: B3 VL with A3V, L4V, M37L, E49K, D97E
# B6: HCV 208A-134 (antibody, V domains shown)
# VH: B3 VH with V12A
# VL: EVLMTQSPLSLPVSLGDQASISCRSSQSLEHTNGNTYLEWFLQRPGQPPKLLIYKVSSRFSGVPDRFSGSGSGTDFTLKISRVEAEDLGVYYCFQGSHVPFTFGSGTKLAIKR
# B7: HCV 208A-110 (antibody, V domains shown)
# VH: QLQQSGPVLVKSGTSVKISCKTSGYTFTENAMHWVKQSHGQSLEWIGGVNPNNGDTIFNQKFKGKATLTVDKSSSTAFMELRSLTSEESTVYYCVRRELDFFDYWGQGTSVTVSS
# VL: B3 VL with A3V, E49K, G83A, T89A, D97E
# B8: HCV 208A-126 (antibody, V domains shown)
# VH: QLQQSGPVLVKPGASVMISCKTSGYTFTENAMHWVKQSHGKSLEWIGGVNPNNGDTIFNQKFKGKATLTVDKSSNTAFTELRSLPSEESTVYYCVRRGLDFFDYWGQGTSVTVSS
# VL: B3 VL with A3V, E49K, G83A, T89A, D97E
# B9: HCV 208A-741 (antibody, V domains shown)
# VH: B8 VH with N75S, T79M, P85T, G98E
# VL: B3 VL with A3V, A19T, R24G, Y34F, E49K, G83A, T89A, D97E
# B10: HCV 208A-222 (antibody, V domains shown)
# VH: B5 VH with K19R, M43K, S54N, F103Y
# VL: B3 VL with A3V, L4V, M37L, E49K, D97E
# B11: HCV 208A-605 (antibody, V domains shown)
# VH: B5 VH with M34I
# VL: B3 VL with A3V, L4V, M37L, E49K, D97E
# B12: HCV 208A-692 (antibody, V domains shown)
# VH: B3 VH with V12A, Y52F
# VL: B6 VL with T32S
# B13: HCV 208A-133 (antibody, V domains shown)
# VH: B8 VH with K11G, K36E, N75S, T79M, L81F, P85T, G98E
# VL: B3 VL with A3V, E49K, G83A, D97E
# B14: HCV 208A-334 (antibody, V domains shown)
# VH: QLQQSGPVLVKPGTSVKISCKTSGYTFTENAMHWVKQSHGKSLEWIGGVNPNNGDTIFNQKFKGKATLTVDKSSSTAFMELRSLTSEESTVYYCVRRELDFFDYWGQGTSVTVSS
# VL: B3 VL with A3V, E49K, G83A, T89A, D97G
# B15: HCV 208A-159 (antibody, V domains shown)
# VH: B8 VH with V8A, L9Q, G64D, T67A, N75S, T79M, P85T, G98E
# VL: B3 VL with A3V, M37V, E49K, S56A, G83A, T87A, T89A, D97E
# B16: HCV 208B-612 (antibody, V domains shown)
# VH: EVQLQQSGPELVKPGASVKMSCKASGYRFTSYVMHWVRQKPGQGLEWIGYIDPHNDDTKYSEKFRGKATLTSDKSSTTAYMELSSLTSEDSAVYYCVRYSYDRDYSPMDYWGQGTSVTVSS
# VL: QIVLTQSPTLMSASPGEKVTMTCSASSTVTYIYWYQQKPGSSPRLWMYDTFNLVSGVPARFSGSRSGTSYFLTISSMEGEDAATYYCQQYSDSPYTFGGGTKLEIKR
# B17: HCV 208B-395 (antibody, V domains shown)
# VH: QVQLQQSGAGLAKPGASVKMSCKASGYTFTANKMHWTKQRPGQGLEWIGYIDPSSGYTQYNHKIQDKATLTADTSSSTAYMQLSSLTFEDSAVYYCTNFAYWGQGTLVTVSA
# VL: DIVLTQSPATLSVTPGDRVSLSCRASQRIYNYLHWYQQKSHESPRLLIKYASQSISGIPSRFSGSGSGTDFILTINSVETEDFGMYFCQQSNSWPLTFGAGTKLELRR
# B18: HCV 208B-547 (antibody, V domains shown)
# VH: B17 VH with G10E, A31S, T37A, Q59E, H62Q, Q65K, T74K, F88S
# VL: EVVLTQSPAITAASLGQKVTITCRASSSVSYMHWYRQKSGTSPQPWIYEISTLASGVPTRFRASGSGTSYSLTISSMEAEDAAIYYCQQWNYPLTFGAGTKLELKR
# B19: HCV 208B-672 (antibody, V domains shown)
# VH: EVKLVESGGSLVQPGGSLKLSCAASGFNFNTYAMSWVRQTPEKRLEWVAYISNGGGNTYYVDTVKGRFTISRDNAKNTLYLRMSSLKSEDTAMYYCARHGLYWGYSMDYWGQGTSVTVSS
# VL: DIQMTQSPSSLSASLGERVSLTCRASQDIGGSINWLQQEPDGTIKRLIYATSSLDSGVPKRFSGSRSGSDYSLTISSLESEDFVDYYCLQYASSPPTFGGGTKLEIKR
# Target: T1, HCV Core1-169
# Test: EIA, core1-169 captured by mAb 14-153-229; also: test concentration or dose not given here
row,Binder,OD (A492)
1,B1,2.24 OD
2,B2,0.36 OD
3,B3,2.39 OD
4,B4,1.82 OD
5,B5,1.3 OD
6,B6,0.13 OD
7,B7,1.87 OD
8,B8,1.2 OD
9,B9,1.9 OD
10,B10,2.07 OD
11,B11,2.21 OD
12,B12,0.57 OD
13,B13,1.46 OD
14,B14,1.9 OD
15,B15,1.29 OD

# Target: T2, HCV Core1-169
# Test: SPR sandwich, capture mAb C11-3
row,Binder,expected percent binding
1,B16,3.8%
2,B17,7.6%
3,B18,7.2%
4,B19,2.6%

# Target: T2, HCV Core1-169
# Test: SPR sandwich, capture mAb C11-9
row,Binder,expected percent binding
1,B16,≤ 1%
2,B17,5.2%
3,B18,4.9%
4,B19,≤ 1%

# Target: T3, HCV Core 134-171-TT Peptide (hepatitis C virus (HCV-1 numbering) …)
# T3 construct: also called ALRZ-9 peptide
# Test: SPR, captured mAb, peptide analyte
Binder,Kd,koff,kon
B16,0.35 nM,6.5e-05 s⁻¹,180000 M⁻¹ s⁻¹
B17,0.36 nM,0.00047 s⁻¹,1.3e+06 M⁻¹ s⁻¹
B18,3.2 nM,0.0049 s⁻¹,1.6e+06 M⁻¹ s⁻¹
B19,0.16 nM,0.00034 s⁻¹,2.2e+06 M⁻¹ s⁻¹

# Target: T2, HCV Core1-169
# Test: SPR sandwich, capture mAb C11-7
row,Binder,expected percent binding
1,B16,4.4%
2,B17,9.4%
3,B18,8.3%
4,B19,2.8%

# Target: T2, HCV Core1-169
# Test: SPR sandwich, capture mAb C11-14
row,Binder,expected percent binding
1,B16,3.1%
2,B17,7.8%
3,B18,8.2%
4,B19,2.7%

# Target: T1, HCV Core1-169
# Test: EIA, core1-169 coated on plate; also: test concentration or dose not given here
row,Binder,OD (A492)
1,B1,1.07 OD
2,B2,1.61 OD
3,B3,1.4 OD
4,B4,1.14 OD
5,B5,1.07 OD
6,B6,0.1 OD
7,B7,1.6 OD
8,B8,0.69 OD
9,B9,1.2 OD
10,B10,1.06 OD
11,B11,0.55 OD
12,B12,0.07 OD
13,B13,1.73 OD
14,B14,1.28 OD
15,B15,0.57 OD
